From paper PMC3814365 (Nucleic Acids Research, 2013)

Biological target: Untagged Rps28a (S. cerevisiae, UniProt Q3E7X9 1-67)
Assay: SEC-MALS

Sequence of Untagged Rps28a (Q3E7X9 whole entry): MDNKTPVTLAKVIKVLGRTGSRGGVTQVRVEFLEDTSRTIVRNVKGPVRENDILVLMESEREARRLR

B1: Edc3(201–231) lacking the His-GST tag (peptide, UniProt P39998 201-231, looked up)
chain: DDIDDPKYLPITQSLNITHLIHSATNSPSIN
For B1, the “stoichiometry N” value was 1.
